Assay results taken from PMC9482650, “Quantitative fragmentomics allow affinity mapping of interactomes” (Nature Communications, 2022).

T1: PTPN13_4, Q12923
T1 sequence (Q12923 1783-1878, limits assumed, looked up): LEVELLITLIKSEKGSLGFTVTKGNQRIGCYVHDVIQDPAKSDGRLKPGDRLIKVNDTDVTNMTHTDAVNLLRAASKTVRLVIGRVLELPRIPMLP

T2: LNX2_4, Q8N448
T2 sequence (Q8N448 595-690, limits assumed, looked up): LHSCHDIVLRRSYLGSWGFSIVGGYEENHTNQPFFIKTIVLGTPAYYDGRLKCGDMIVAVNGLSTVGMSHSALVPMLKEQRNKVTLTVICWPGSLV

T3: SNTB2, Q13425
T3 sequence (Q13425 110-208, limits assumed, looked up): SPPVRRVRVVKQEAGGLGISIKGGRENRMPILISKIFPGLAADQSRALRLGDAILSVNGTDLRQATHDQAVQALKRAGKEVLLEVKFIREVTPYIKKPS

T4: SHROOM3, Q8TF72
T4 sequence (Q8TF72 20-120, limits assumed, looked up): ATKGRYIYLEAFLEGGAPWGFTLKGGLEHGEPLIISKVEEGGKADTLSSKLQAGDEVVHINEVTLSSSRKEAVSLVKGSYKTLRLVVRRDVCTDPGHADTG

T5: PDZD2_6, O15018
T5 sequence (O15018 2745-2839, limits assumed, looked up): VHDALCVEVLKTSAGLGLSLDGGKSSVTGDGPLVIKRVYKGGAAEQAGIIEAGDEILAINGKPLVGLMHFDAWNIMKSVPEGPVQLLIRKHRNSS

T6: PDZRN3_2, Q9UPQ7
T6 sequence (Q9UPQ7 414-513, limits assumed, looked up): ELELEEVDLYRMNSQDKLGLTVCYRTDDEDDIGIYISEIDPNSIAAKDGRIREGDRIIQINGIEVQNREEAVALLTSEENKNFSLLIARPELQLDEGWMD

T7: PTPN4, P29074
T7 sequence (P29074 512-599, limits assumed, looked up): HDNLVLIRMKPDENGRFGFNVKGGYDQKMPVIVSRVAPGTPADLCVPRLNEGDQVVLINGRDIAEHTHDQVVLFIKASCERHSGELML

T8: USH1C_3, Q9Y6N9
T8 sequence (Q9Y6N9 447-547, limits assumed, looked up): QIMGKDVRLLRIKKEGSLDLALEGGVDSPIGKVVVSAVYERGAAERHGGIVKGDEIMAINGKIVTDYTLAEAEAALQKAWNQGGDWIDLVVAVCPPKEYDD

T9: NHERF1_2, O14745
T9 sequence (O14745 149-244, limits assumed, looked up): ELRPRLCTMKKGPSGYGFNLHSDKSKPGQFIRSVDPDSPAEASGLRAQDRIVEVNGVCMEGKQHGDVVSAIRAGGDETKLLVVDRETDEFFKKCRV

T10: PDZD2_4, O15018
T10 sequence (O15018 723-823, limits assumed, looked up): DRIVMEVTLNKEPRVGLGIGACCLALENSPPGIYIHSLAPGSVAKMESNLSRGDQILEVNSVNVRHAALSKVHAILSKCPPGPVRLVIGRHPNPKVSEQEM

T11: PDZD4, Q76G19
T11 sequence (Q76G19 125-224, limits assumed, looked up): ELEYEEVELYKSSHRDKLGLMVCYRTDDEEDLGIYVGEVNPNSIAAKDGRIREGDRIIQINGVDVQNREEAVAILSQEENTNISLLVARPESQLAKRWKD

T12: TJP3_2, O95049
T12 sequence (O95049 190-282, limits assumed, looked up): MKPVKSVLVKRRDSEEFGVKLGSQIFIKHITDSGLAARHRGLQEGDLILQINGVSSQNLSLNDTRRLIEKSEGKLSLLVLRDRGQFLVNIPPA

T13: SIPA1L3, O60292
T13 sequence (O60292 961-1052, limits assumed, looked up): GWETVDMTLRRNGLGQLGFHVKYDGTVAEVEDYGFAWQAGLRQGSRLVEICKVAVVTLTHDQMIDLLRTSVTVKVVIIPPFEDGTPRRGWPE

T14: PDZD2_1, O15018
T14 sequence (O15018 80-192, limits assumed, looked up): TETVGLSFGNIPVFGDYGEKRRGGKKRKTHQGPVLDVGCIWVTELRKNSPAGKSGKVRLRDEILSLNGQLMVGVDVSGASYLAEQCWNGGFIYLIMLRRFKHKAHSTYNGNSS


Molecular target: T1, PTPN13_4, Q12923
Experiment: holdup assay
Design: key: below the threshold = too weak to quantify, mostly under pKd 3.1 to 4
Settings: plain residues with an end cap or a label only (N-terminal biotin on a linker: ttds)

Row | Binder | pKd
1 | RRVRKLPSTTL [RPS6KA1, Q15418] | below the threshold

Molecular target: T2, LNX2_4, Q8N448
Experiment: holdup assay
Design: key: below the threshold = too weak to quantify, mostly under pKd 3.1 to 4
Settings: plain residues with an end cap or a label only (N-terminal biotin on a linker: ttds)

Row | Binder | pKd
2 | TGDTLEKFVEGL [CBP, Q92793] | below the threshold
3 | RRVRKLPSTTL [RPS6KA1, Q15418] | below the threshold
4 | DEDQHTQITKV [PTEN, P60484] | below the threshold

Molecular target: T3, SNTB2, Q13425
Experiment: holdup assay
Design: key: below the threshold = too weak to quantify, mostly under pKd 3.1 to 4
Settings: plain residues with an end cap or a label only (N-terminal biotin on a linker: ttds)

Row | Binder | pKd
5 | TGDTLEKFVEGL [CBP, Q92793] | below the threshold
6 | DEDQHTQITKV [PTEN, P60484] | below the threshold

Molecular target: T4, SHROOM3, Q8TF72
Experiment: holdup assay
Design: key: below the threshold = too weak to quantify, mostly under pKd 3.1 to 4
Settings: plain residues with an end cap or a label only (N-terminal biotin on a linker: ttds)

Row | Binder | pKd
7 | TGDTLEKFVEGL [CBP, Q92793] | below the threshold
8 | RRVRKLPSTTL [RPS6KA1, Q15418] | below the threshold

Molecular target: T5, PDZD2_6, O15018
Experiment: holdup assay
Design: key: below the threshold = too weak to quantify, mostly under pKd 3.1 to 4
Settings: plain residues with an end cap or a label only (N-terminal biotin on a linker: ttds)

Row | Binder | pKd
9 | TGDTLEKFVEGL [CBP, Q92793] | 3.86
10 | RRVRKLPSTTL [RPS6KA1, Q15418] | below the threshold
11 | DEDQHTQITKV [PTEN, P60484] | 3.56

Molecular target: T6, PDZRN3_2, Q9UPQ7
Experiment: holdup assay
Design: key: below the threshold = too weak to quantify, mostly under pKd 3.1 to 4
Settings: plain residues with an end cap or a label only (N-terminal biotin on a linker: ttds)

Row | Binder | pKd
12 | RRVRKLPSTTL [RPS6KA1, Q15418] | below the threshold

Molecular target: PTPN13_2, Q12923
Sequence (Q12923 1363-1462): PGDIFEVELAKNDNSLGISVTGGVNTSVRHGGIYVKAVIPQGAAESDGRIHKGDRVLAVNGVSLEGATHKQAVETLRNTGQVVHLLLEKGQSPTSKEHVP
Experiment: holdup assay
Design: key: below the threshold = too weak to quantify, mostly under pKd 3.1 to 4
Settings: plain residues with an end cap or a label only (N-terminal biotin on a linker: ttds)

Row | Binder | pKd
13 | TGDTLEKFVEGL [CBP, Q92793] | below the threshold
14 | RRVRKLPSTTL [RPS6KA1, Q15418] | below the threshold
15 | DEDQHTQITKV [PTEN, P60484] | 3.81

Molecular target: T7, PTPN4, P29074
Experiment: holdup assay
Design: key: below the threshold = too weak to quantify, mostly under pKd 3.1 to 4
Settings: plain residues with an end cap or a label only (N-terminal biotin on a linker: ttds)

Row | Binder | pKd
16 | TGDTLEKFVEGL [CBP, Q92793] | below the threshold
17 | RRVRKLPSTTL [RPS6KA1, Q15418] | below the threshold
18 | DEDQHTQITKV [PTEN, P60484] | below the threshold

Molecular target: T8, USH1C_3, Q9Y6N9
Experiment: holdup assay
Design: key: below the threshold = too weak to quantify, mostly under pKd 3.1 to 4
Settings: plain residues with an end cap or a label only (N-terminal biotin on a linker: ttds)

Row | Binder | pKd
19 | RRVRKLPSTTL [RPS6KA1, Q15418] | below the threshold

Molecular target: SCRIB_4, Q14160
Sequence (Q14160 1095-1204): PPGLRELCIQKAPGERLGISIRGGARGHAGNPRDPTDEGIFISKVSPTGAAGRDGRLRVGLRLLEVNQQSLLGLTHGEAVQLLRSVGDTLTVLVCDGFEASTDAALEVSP
Experiment: holdup assay
Design: key: below the threshold = too weak to quantify, mostly under pKd 3.1 to 4
Settings: plain residues with an end cap or a label only (N-terminal biotin on a linker: ttds)

Row | Binder | pKd
20 | TGDTLEKFVEGL [CBP, Q92793] | below the threshold
21 | RRVRKLPSTTL [RPS6KA1, Q15418] | below the threshold
22 | DEDQHTQITKV [PTEN, P60484] | below the threshold

Molecular target: PARD3B_2, Q8TEW8
Sequence (Q8TEW8 376-471): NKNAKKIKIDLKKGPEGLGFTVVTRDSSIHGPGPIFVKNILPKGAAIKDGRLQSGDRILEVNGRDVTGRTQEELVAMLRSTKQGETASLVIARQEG
Experiment: holdup assay
Design: key: below the threshold = too weak to quantify, mostly under pKd 3.1 to 4
Settings: plain residues with an end cap or a label only (N-terminal biotin on a linker: ttds)

Row | Binder | pKd
23 | TGDTLEKFVEGL [CBP, Q92793] | 3.9
24 | RRVRKLPSTTL [RPS6KA1, Q15418] | below the threshold
25 | DEDQHTQITKV [PTEN, P60484] | below the threshold

Molecular target: T9, NHERF1_2, O14745
Experiment: holdup assay
Design: key: below the threshold = too weak to quantify, mostly under pKd 3.1 to 4
Settings: plain residues with an end cap or a label only (N-terminal biotin on a linker: ttds)

Row | Binder | pKd
26 | TGDTLEKFVEGL [CBP, Q92793] | 3.96
27 | RRVRKLPSTTL [RPS6KA1, Q15418] | below the threshold
28 | DEDQHTQITKV [PTEN, P60484] | below the threshold

Molecular target: T10, PDZD2_4, O15018
Experiment: holdup assay
Design: key: below the threshold = too weak to quantify, mostly under pKd 3.1 to 4
Settings: plain residues with an end cap or a label only (N-terminal biotin on a linker: ttds)

Row | Binder | pKd
29 | TGDTLEKFVEGL [CBP, Q92793] | below the threshold
30 | RRVRKLPSTTL [RPS6KA1, Q15418] | below the threshold
31 | DEDQHTQITKV [PTEN, P60484] | below the threshold

Molecular target: CARD14, Q9BXL6
Sequence (Q9BXL6 558-663): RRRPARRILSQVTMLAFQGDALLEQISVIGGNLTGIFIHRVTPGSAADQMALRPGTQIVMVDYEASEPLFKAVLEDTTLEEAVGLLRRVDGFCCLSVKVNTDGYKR
Experiment: holdup assay
Design: key: below the threshold = too weak to quantify, mostly under pKd 3.1 to 4
Settings: plain residues with an end cap or a label only (N-terminal biotin on a linker: ttds)

Row | Binder | pKd
32 | TGDTLEKFVEGL [CBP, Q92793] | below the threshold
33 | RRVRKLPSTTL [RPS6KA1, Q15418] | below the threshold
34 | DEDQHTQITKV [PTEN, P60484] | below the threshold

Molecular target: NHERF4_3, Q86UT5
Sequence (Q86UT5 325-412): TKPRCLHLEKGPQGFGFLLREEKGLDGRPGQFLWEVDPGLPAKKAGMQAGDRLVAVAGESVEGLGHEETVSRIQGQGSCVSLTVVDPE
Experiment: holdup assay
Design: key: below the threshold = too weak to quantify, mostly under pKd 3.1 to 4
Settings: plain residues with an end cap or a label only (N-terminal biotin on a linker: ttds)

Row | Binder | pKd
35 | TGDTLEKFVEGL [CBP, Q92793] | 3.86
36 | RRVRKLPSTTL [RPS6KA1, Q15418] | below the threshold
37 | DEDQHTQITKV [PTEN, P60484] | below the threshold

Molecular target: T11, PDZD4, Q76G19
Experiment: holdup assay
Design: key: below the threshold = too weak to quantify, mostly under pKd 3.1 to 4
Settings: plain residues with an end cap or a label only (N-terminal biotin on a linker: ttds)

Row | Binder | pKd
38 | TGDTLEKFVEGL [CBP, Q92793] | below the threshold
39 | RRVRKLPSTTL [RPS6KA1, Q15418] | below the threshold
40 | DEDQHTQITKV [PTEN, P60484] | below the threshold

Molecular target: LMO7, Q8WWI1
Sequence (Q8WWI1 1037-1138): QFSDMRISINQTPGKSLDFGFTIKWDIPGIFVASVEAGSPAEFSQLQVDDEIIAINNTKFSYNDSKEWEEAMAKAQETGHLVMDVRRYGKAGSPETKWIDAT
Experiment: holdup assay
Design: key: below the threshold = too weak to quantify, mostly under pKd 3.1 to 4
Settings: plain residues with an end cap or a label only (N-terminal biotin on a linker: ttds)

Row | Binder | pKd
41 | RRVRKLPSTTL [RPS6KA1, Q15418] | below the threshold
42 | DEDQHTQITKV [PTEN, P60484] | below the threshold

Molecular target: DVL2, O14641
Sequence (O14641 260-359): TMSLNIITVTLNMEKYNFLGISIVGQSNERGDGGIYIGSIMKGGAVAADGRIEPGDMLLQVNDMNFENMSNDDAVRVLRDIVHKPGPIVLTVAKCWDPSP
Experiment: holdup assay
Design: key: below the threshold = too weak to quantify, mostly under pKd 3.1 to 4
Settings: plain residues with an end cap or a label only (N-terminal biotin on a linker: ttds)

Row | Binder | pKd
43 | TGDTLEKFVEGL [CBP, Q92793] | below the threshold
44 | RRVRKLPSTTL [RPS6KA1, Q15418] | below the threshold
45 | DEDQHTQITKV [PTEN, P60484] | below the threshold

Molecular target: T12, TJP3_2, O95049
Experiment: holdup assay
Design: key: below the threshold = too weak to quantify, mostly under pKd 3.1 to 4
Settings: plain residues with an end cap or a label only (N-terminal biotin on a linker: ttds)

Row | Binder | pKd
46 | TGDTLEKFVEGL [CBP, Q92793] | 3.95
47 | RRVRKLPSTTL [RPS6KA1, Q15418] | below the threshold
48 | DEDQHTQITKV [PTEN, P60484] | below the threshold

Molecular target: PDLIM4, P50479
Sequence (P50479 1-83): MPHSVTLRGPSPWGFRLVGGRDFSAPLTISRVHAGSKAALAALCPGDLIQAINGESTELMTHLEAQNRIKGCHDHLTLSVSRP
Experiment: holdup assay
Design: key: below the threshold = too weak to quantify, mostly under pKd 3.1 to 4
Settings: plain residues with an end cap or a label only (N-terminal biotin on a linker: ttds)

Row | Binder | pKd
49 | TGDTLEKFVEGL [CBP, Q92793] | below the threshold
50 | RRVRKLPSTTL [RPS6KA1, Q15418] | below the threshold
51 | DEDQHTQITKV [PTEN, P60484] | below the threshold

Molecular target: T13, SIPA1L3, O60292
Experiment: holdup assay
Design: key: below the threshold = too weak to quantify, mostly under pKd 3.1 to 4
Settings: plain residues with an end cap or a label only (N-terminal biotin on a linker: ttds)

Row | Binder | pKd
52 | RRVRKLPSTTL [RPS6KA1, Q15418] | below the threshold

Molecular target: T14, PDZD2_1, O15018
Experiment: holdup assay
Design: key: below the threshold = too weak to quantify, mostly under pKd 3.1 to 4
Settings: plain residues with an end cap or a label only (N-terminal biotin on a linker: ttds)

Row | Binder | pKd
53 | TGDTLEKFVEGL [CBP, Q92793] | below the threshold
54 | RRVRKLPSTTL [RPS6KA1, Q15418] | below the threshold
55 | DEDQHTQITKV [PTEN, P60484] | below the threshold

Molecular target: MAGIX, Q9H6Y5
Sequence (Q9H6Y5 118-211): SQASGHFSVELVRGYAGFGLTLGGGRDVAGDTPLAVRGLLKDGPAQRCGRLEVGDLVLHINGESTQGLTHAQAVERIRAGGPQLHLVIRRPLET
Experiment: holdup assay
Design: key: below the threshold = too weak to quantify, mostly under pKd 3.1 to 4
Settings: plain residues with an end cap or a label only (N-terminal biotin on a linker: ttds)

Row | Binder | pKd
56 | TGDTLEKFVEGL [CBP, Q92793] | below the threshold
57 | RRVRKLPSTTL [RPS6KA1, Q15418] | below the threshold
58 | DEDQHTQITKV [PTEN, P60484] | below the threshold
